Measured values taken from patent US9493781B2, “Synthetic brassica-derived chloroplast transit peptides” (DOW AGROSCIENCES LLC, priority 2012, dated 2016).

How the values were obtained:
[1] = test system: tobacco (cv. Petit Havana); experiment: Postemergence glyphosate tolerance of dgt-28 transformed T1 and T2 tobacco; type: in vivo; conditions: 14 DAT, 2240 g ae/ha glyphosate (DURANGO DMA)
Excerpt: Postemergence herbicide tolerance in dgt-28 transformed T1 tobacco. T1 resistant plants from each event used in the progeny testing were given unique identifiers and sampled for zygosity analyses of the dgt-28 gene. Zygosity data were used to assign 2 hemizygous and 2 homozygous replicates to each rate of glyphosate applied allowing for a total of 4 replicates per treatment. These plants were compared against wildtype Petite havana tobacco. All plants were sprayed with a track sprayer set at 187 L/ha. The plants were sprayed from a range of 560-4480 g ae/ha DURANGO DMA™. All applications were formulated in water with the addition of 2% w/v ammonium sulfate (AMS). Plants were evaluated at 7 and 14 days after treatment. Plants were assigned an injury rating with respect to overall visual stunting, chlorosis, and necrosis. The T1 generation is segregating, so some variable response is expected due to difference in zygosity.
Rates of DURANGO DMA™ ranging from 420-3360 g ae/ha glyphosate were applied to 2-3 leaf tobacco as previously described.

[2] = test system: chloroplasts of tobacco cells; experiment: Tobacco transient assay: confocal microscopy of TraP-YFP localization; type: cell-based, Nicotiana benthamiana; conditions: Agrobacterium-infiltrated tobacco leaves
Excerpt: The Trap8 and TraP9 chimeric chloroplast transit peptide sequences were initially tested via a transient in planta assay. Polynucleotide sequences which encode the Trap8 (SEQ ID NO:5) and TraP9 (SEQ ID NO:6) chimeric chloroplast transit peptide sequences were synthesized. A linker sequence (SEQ ID NO:7) was incorporated between the TraP sequence and the yfp coding sequence. The resulting constructs contained two plant transcription units (PTU). The first PTU was comprised of the Arabidopsis thaliana Ubiquitin 10 promoter (AtUbi10 promoter; Callis, et al., (1990) J. Biol. Chem., 265: 12486-12493), TraP-yellow fluorescent protein fusion gene (TraP-YFP; US Patent App. 2007/0298412), and Agrobacterium tumefaciens ORF 23 3′ untranslated region (AtuORF23 3′UTR; U.S. Pat. No. 5,428,147). […]
Agrobacterium-infiltrated tobacco leaves were severed from the plant, and placed into a petri-dish with water to prevent dehydration. The infiltrated tobacco leaves were observed under blue light excitation with long-pass filter glasses held in place using a Dark Reader Hand Lamp™ (Clare Chemical Research Co.; Dolores, Colo.) to identify undamaged areas of the leaf that were successfully expressing the YFP reporter proteins. […]

YFP protein = experiment: Western blot of infiltrated tobacco leaves (YFP expression, transit peptide processing); design: species or system Nicotiana benthamiana; conditions: infiltrated tobacco leaf tissue
Method: Samples of the infiltrated tobacco plants were assayed via Western blotting. Leaf punches were collected and subjected to bead-milling. About 100-200 mg of leaf material was mixed with 2 BBs (steel balls) (Daisy; Rogers, Ark.) and […] of PBST for 3 minutes in a Kleco™ bead mill. The samples were then spun down in a centrifuge at 14,000×g at 4° C. The supernatant was removed and either analyzed directly via Western blot or immunoprecipitated. The immunoprecipitations were performed using the Pierce Direct IP Kit™ (Thermo Scientific; Rockford, Ill.) following the manufacturer's protocol. Approximately, 50 μg of anti-YFP was bound to the resin. The samples were incubated with the resin overnight at 4° C. Next, the samples were washed and eluted the following morning and prepped for analysis by combining equal volumes of 2×8M Urea sample buffer and then boiling the samples for 5 minutes. The boiled samples were run on a 4-12% SDS-Bis Tris gel in MOPS buffer for 40 minutes. The gel was then blotted using the Invitrogen iBlot™ (Life Technologies; Carlsbad, Calif.) following the manufacturer's protocol. The blotted membrane was blocked for 10 minutes using 5% non-fat dry milk in PBS-Tween solution. The membrane was probed with the primary antibody (monoclonal anti-GFP in rabbit) used at a 1:1000 dilution in the 5% non-fat dry milk in PBS-Tween solution for 1 hour. […]

B1: TraP8: chimeric chloroplast transit peptide SEQ ID NO:3; N-terminus from Brassica napus EPSPS CTP, C-terminus from Brassica rapa (protein)
chain: MAQSSRICHGVQNPCVIISNLSKSNQNKSPFSVSLKTHQQQRRAYQISSWGLKKSNNGSVIRPVK
modifications: TraP8 chimeric chloroplast transit peptide
notes: N-terminus from Brassica napus EPSPS CTP, C-terminus from Brassica rapa
[1]
  % Injury Ave: 9.3%
[2]
  Localization of YFP fluorescence in tobacco leaf cells: accumulated within the chloroplasts
YFP protein
  Processing (cleavage) of transit peptide from YFP by Western blot: processed
